Test results: the supplement of paper PMC11246515
± gives the standard deviation of the averaged measurements.

Test: total protein half-life in vivo (active degradation + dilution); higher = more stable protein
[1] = E. coli NCM3722 delta-clpP delta-lon delta-hslV, growth: N-lim chemostat, doubling time 6 h
[2] = E. coli NCM3722 delta-hslV, growth: N-lim chemostat, doubling time 6 h
[3] = wild type E. coli NCM3722, growth: N-lim chemostat, doubling time 6 h
[4] = wild type E. coli NCM3722, growth: N-lim chemostat, doubling time 12 h
[5] = wild type E. coli NCM3722, growth: C-lim chemostat, doubling time 3 h
[6] = wild type E. coli NCM3722, growth: C-lim chemostat, doubling time 6 h
[7] = wild type E. coli NCM3722, growth: C-lim chemostat, doubling time 12 h
[8] = wild type E. coli NCM3722, growth: P-lim chemostat, doubling time 12 h
[9] = wild type E. coli NCM3722, growth: P-lim chemostat, doubling time 6 h
[10] = E. coli NCM3722 delta-clpP, growth: N-lim chemostat, doubling time 6 h
[11] = E. coli NCM3722 delta-lon, growth: N-lim chemostat, doubling time 6 h
[12] = E. coli NCM3722 delta-smpB, growth: N-lim chemostat, doubling time 6 h

Question: Which results are given for “MTFWSILRQRCWGLVLVVAGVCVITFIISHLIPGDPARLLAGDRASDAIVENIRQQLGLDQPLYVQFYRYVSDLFHGDLGTSIRTGRPVLEELRIFFPATLELAFGALLLALLIGIPLGILSAVWRNRWLDHLVRIMAITGISTPAFWLGLGVIVLFYGHLQILPGGGRLDDWLDPPTHVTGFYLLDALLEGNGEVFFNALQHLILPALTLAFVHLGIVARQIRSAMLEQLSEDYIRTARASGLPGWYIVLCYALPNALIPSITVLGLALGDLLYGAVLTETVFAWPGMGAWVVTSIQALDFPAVMGFAVVVSFAYVLVNLVVDLLYLWIDPRIGRGGGE”?
Answer: total protein half-life in vivo [1]: > 8 h; total protein half-life in vivo [2]: 5.53 h; total protein half-life in vivo [3]: 5.15 h; total protein half-life in vivo [4]: 7.28 h

Question: For “MTHLPHWWQNGVIYQIYPKSFQDTTGSGTGDLRGVIQHLDYLHKLGVDAIWLTPFYVSPQVDNGYDVANYTAIDPTYGTLDDFDELVTQAKSRGIRIILDMVFNHTSTQHAWFREALNKESPYRQFYIWRDGEPETPPNNWRSKFGGSAWRWHAESEQYYLHLFAPEQADLNWENPAVRAELKKVCEFWADRGVDGLRLDVVNLISKDPRFPEDLDGDGRRFYTDGPRAHEFLHEMNRDVFTPRGLMTVGEMSSTSLEHCQRYAALTGSELSMTFNFHHLKVDYPGGEKWTLAKPDFVALKTLFRHWQQGMHNVAWNALFWCNHDQPRIVSRFGDEGEYRVPAAKMLAMVLHGMQGTPYIYQGEEIGMTNPHFTRITDYRDVESLNMFAELRNDGRDADELLAILASKSRDNSRTPMQWSNGDNAGFTAGEPWIGLGDNYQQINVEAALADDSSVFYTYQKLIALRKQEAILTWGNYQDLLPNSPVLWCYRREWKGQTLLVIANLSREIQPWQAGQMRGNWQLVMHNYEEASPQPCAMNLRPFEAVWWLQK”, which “total protein half-life in vivo” value [5] is on record?
Answer: Its value is 2.39 ± 0.28 h.

Question: And the “total protein half-life in vivo” value [6]?
Answer: Its value is 1.98 ± 0.55 h.

Question: What about the “total protein half-life in vivo” value [7] of the same sequence?
Answer: The value was 2.82 ± 0.88 h.

Question: What about the “total protein half-life in vivo” value [8] of the same sequence?
Answer: Its value is 5.64 h.

Question: With “MTHQLRSRDIIALGFMTFALFVGAGNIIFPPMVGLQAGEHVWTAAFGFLITAVGLPVLTVVALAKVGGGVDSLSTPIGKVAGVLLATVCYLAVGPLFATPRTATVSFEVGIAPLTGDSALPLFIYSLVYFAIVILVSLYPGKLLDTVGNFLAPLKIIALVILSVAAIVWPAGSISTATEAYQNAAFSNGFVNGYLTMDTLGAMVFGIVIVNAARSRGVTEARLLTRYTVWAGLMAGVGLTLLYLALFRLGSDSASLVDQSANGAAILHAYVQHTFGGGGSFLLAALIFIACLVTAVGLTCACAEFFAQYVPLSYRTLVFILGGFSMVVSNLGLSQLIQISVPVLTAIYPPCIALVVLSFTRSWWHNSSRVIAPPMFISLLFGILDGIKASAFSDILPSWAQRLPLAEQGLAWLMPTVVMVVLAIIWDRAAGRQVTSSAH [P0AD99]” as the sequence, how does the “total protein half-life in vivo” value [9] read?
Answer: Its value is 0.949 h.

Question: What about the “total protein half-life in vivo” value [8] of the same sequence?
Answer: Its value is 1.98 ± 0.53 h.

Question: For “MTIALELQQLKKTYPGGVQALRGIDLQVEAGDFYALLGPNGAGKSTTIGIISSLVNKTSGRVSVFGYDLEKDVVNAKRQLGLVPQEFNFNPFETVQQIVVNQAGYYGVERKEAYIRSEKYLKQLDLWGKRNERARMLSGGMKRRLMIARALMHEPKLLILDEPTAGVDIELRRSMWGFLKDLNDKGTTIILTTHYLEEAEMLCRNIGIIQHGELVENTSMKALLAKLKSETFILDLAPKSPLPKLDGYQYRLVDTATLEVEVLREQGINSVFTQLSEQGIQVLSMRNKANRLEELFVSLVNEKQGDRA”, which “total protein half-life in vivo” value [1] is on record?
Answer: Its value is 6.97 ± 0.91 h.

Question: And the “total protein half-life in vivo” value [10]?
Answer: Its value is 6.29 ± 0.4 h.

Question: And the “total protein half-life in vivo” value [2]?
Answer: The value was 6.1 ± 1 h.

Question: What about the “total protein half-life in vivo” value [11] of the same sequence?
Answer: The value was 6.83 ± 0.17 h.

Question: What about the “total protein half-life in vivo” value [12] of the same sequence?
Answer: Its value is 6.4 ± 0.21 h.

Question: And the “total protein half-life in vivo” value [5]?
Answer: Its value is 3.09 ± 0.16 h.

Question: And the “total protein half-life in vivo” value [6]?
Answer: Its value is 6.21 ± 0.28 h.

Question: What about the “total protein half-life in vivo” value [7] of the same sequence?
Answer: The value was 11.6 ± 1.9 h.

Question: What about the “total protein half-life in vivo” value [3] of the same sequence?
Answer: Its value is 6.14 ± 0.38 h.

Question: And the “total protein half-life in vivo” value [4]?
Answer: Its value is 12.1 ± 0.42 h.

Question: And the “total protein half-life in vivo” value [9]?
Answer: Its value is 6.24 ± 0.29 h.

Question: And the “total protein half-life in vivo” value [8]?
Answer: The value was 12.7 ± 0.8 h.

Question: What does the source list for “MTIKVGINGFGRIGRIVFRAAQKRSDIEIVAINDLLDADYMAYMLKYDSTHGRFDGTVEVKDGHLIVNGKKIRVTAERDPANLKWDEVGVDVVAEATGLFLTDETARKHITAGAKKVVMTGPSKDNTPMFVKGANFDKYAGQDIVSNASCTTNCLAPLAKVINDNFGIIEGLMTTVHATTATQKTVDGPSHKDWRGGRGASQNIIPSSTGAAKAVGKVLPELNGKLTGMAFRVPTPNVSVVDLTVRLEKAATYEQIKAAVKAAAEGEMKGVLGYTEDDVVSTDFNGEVCTSVFDAKAGIALNDNFVKLVSWYDNETGYSNKVLDLIAHISK [P0A9B2]”?
Answer: total protein half-life in vivo [1]: 6.03 ± 0.4 h; total protein half-life in vivo [10]: 5.43 ± 0.34 h; total protein half-life in vivo [2]: 5.447 ± 0.054 h; total protein half-life in vivo [11]: 5.382 ± 0.019 h; total protein half-life in vivo [12]: 5.22 ± 0.19 h; total protein half-life in vivo [5]: 3.35 ± 0.1 h; total protein half-life in vivo [6]: 6.201 ± 0.014 h; total protein half-life in vivo [7]: 12.1 ± 0.39 h; total protein half-life in vivo [3]: 5.69 ± 0.16 h; total protein half-life in vivo [4]: 9.73 ± 0.3 h; total protein half-life in vivo [9]: 6.302 ± 0.044 h; total protein half-life in vivo [8]: 12.6 ± 0.74 h

Question: What does the source list for “MTINDSAISEQGMCEEEQVARIAWFYYHDGLTQSEISDRLGLTRLKVSRLLEKGHQSGIIRVQINSRFEGCLEYETQLRRQFSLQHVRVIPGLADADVGGRLGIGAAHMLMSLLQPQQMLAIGFGEATMNTLQRLSGFISSQQIRLVTLSGGVGSYMTGIGQLNAACSVNIIPAPLRASSADIARTLKNENCVKDVLLAAQAADVAIVGIGAVSQQDDATIIRSGYISQGEQLMIGRKGAVGDILGYFFDAKGDVVTNIKIHNELIGLPLSALKTIPVRVGVAGGENKAEAIAAAMKGGYINALVTDQDTAAAILRS”?
Answer: total protein half-life in vivo [1]: 5.64 ± 1.1 h; total protein half-life in vivo [10]: 5.69 ± 0.67 h; total protein half-life in vivo [2]: 4.76 ± 0.47 h; total protein half-life in vivo [11]: 4.58 ± 0.45 h; total protein half-life in vivo [12]: 4.6 ± 0.058 h; total protein half-life in vivo [5]: 2.88 ± 0.2 h; total protein half-life in vivo [6]: 4.551 ± 0.016 h; total protein half-life in vivo [7]: 7.78 h; total protein half-life in vivo [3]: 4.64 ± 0.19 h; total protein half-life in vivo [4]: 8.2 ± 0.58 h; total protein half-life in vivo [9]: 5.08 h

Question: What does the source list for “MTIRSYKNLNLVRANIETESRQFIENKNYSIQSIGPMPGSRAGLRVVFTRPGVNLATVDIFYNGDGSTTIQYLTGANRSLGQELADHLFETINPAEFEQVNMVLQGFVETSVLPVLELSADESHIEFREHSRNAHTVVWKIISTSYQDELTVSLHITTGKLQIQGRPLSCYRVFTFNLAALLDLQGLEKVLIRQEDGKANIVQQEVARTYLQTVMADAYPHLHVTAEKLLVSGLCVKLAAPDLPDYCMLLYPELRTIEGVLKSKMSGLGMPVQQPAGFGTYFDKPAAHYILKPQFAATLRPEQINIISTAYTFFNVERHSLFHMETVVDASRMISDMARLMGKATRAWGIIKDLYIV”?
Answer: total protein half-life in vivo [1]: 5.71 h; total protein half-life in vivo [2]: 1.859 ± 0.0024 h; total protein half-life in vivo [11]: 1.2 h; total protein half-life in vivo [12]: 0.954 h; total protein half-life in vivo [5]: 1.22 h; total protein half-life in vivo [7]: 3.37 h; total protein half-life in vivo [3]: 1.41 h; total protein half-life in vivo [4]: 4.02 ± 2.5 h; total protein half-life in vivo [9]: 1.17 h; total protein half-life in vivo [8]: 3.31 ± 1.4 h
